According to paper PMC9958085, “A novel mechanism underlying allosteric regulation of ADAMTS-13 revealed by hydrogen−deuterium exchange plus mass spectrometry” (Research and Practice in Thrombosis and Haemostasis, 2022):

Assays:
[1] = molecular target: T1, N-terminal ADAMTS-13 fragment MDTCS (aa1-685) (UniProt Q76LX8 30-685); assay: SPR; CUB fragment immobilised on a CM5 chip through amine-coupling; N-terminal fragment perfused at 30 μl/min for 120 s, dissociation 300 s; KD from maximal RU as a function of concentration (0-1.0 μM), Prism 8.0; conditions: both partners purified
T1 construct: signal peptide in the construct; ADAMTS-13, N-terminal fragment MDTCS (metalloprotease, disintegrin-like domain, first TSP1 repeat, cysteine-rich and spacer domain), aa1-685; The signal peptide and propeptide are probably removed on secretion (surmise); also called ADAMTS-13 variant truncated after spacer domain; source: Drosophila (S2) cell line, purified
T1 sequence (looked up): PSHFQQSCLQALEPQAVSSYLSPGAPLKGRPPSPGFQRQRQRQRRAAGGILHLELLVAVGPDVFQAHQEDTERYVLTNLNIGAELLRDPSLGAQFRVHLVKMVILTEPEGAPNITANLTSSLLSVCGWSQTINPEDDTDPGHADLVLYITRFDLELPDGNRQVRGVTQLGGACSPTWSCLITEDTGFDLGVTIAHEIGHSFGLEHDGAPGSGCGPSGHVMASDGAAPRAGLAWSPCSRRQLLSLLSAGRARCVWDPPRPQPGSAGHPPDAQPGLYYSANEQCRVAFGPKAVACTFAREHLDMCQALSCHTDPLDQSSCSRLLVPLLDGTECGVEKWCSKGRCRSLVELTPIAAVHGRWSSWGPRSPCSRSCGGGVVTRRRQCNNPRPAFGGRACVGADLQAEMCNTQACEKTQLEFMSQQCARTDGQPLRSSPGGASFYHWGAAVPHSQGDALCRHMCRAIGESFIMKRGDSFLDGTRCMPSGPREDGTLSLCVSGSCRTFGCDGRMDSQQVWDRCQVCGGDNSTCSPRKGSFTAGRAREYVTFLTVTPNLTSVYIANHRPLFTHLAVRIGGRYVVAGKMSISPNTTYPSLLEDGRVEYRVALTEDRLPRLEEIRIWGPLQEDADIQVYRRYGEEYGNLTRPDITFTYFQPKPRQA

[2] = molecular target: T2, ADAMTS-13 CUB domain fragment; assay: as above; conditions: both partners purified
T2 chain: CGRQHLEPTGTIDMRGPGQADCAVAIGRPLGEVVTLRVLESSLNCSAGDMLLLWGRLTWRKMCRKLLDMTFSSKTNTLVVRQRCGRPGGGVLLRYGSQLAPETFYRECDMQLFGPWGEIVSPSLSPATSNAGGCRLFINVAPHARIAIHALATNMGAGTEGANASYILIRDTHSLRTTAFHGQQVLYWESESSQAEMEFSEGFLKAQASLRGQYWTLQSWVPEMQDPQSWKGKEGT

Row | Binder | Kd [1] | Kd [2]
1 | ADAMTS-13 CUB domain fragment (domain or fragment, CUB1+CUB2 taken from the conventional CUB1 start to the C-terminus; HEK-293 expressed (likely N-glycosylated); amine-coupled to CM5 chip) CGRQHLEPTGTIDMRGPGQADCAVAIGRPLGEVVTLRVLESSLNCSAGDMLLLWGRLTWRKMCRKLLDMTFSSKTNTLVVRQRCGRPGGGVLLRYGSQLAPETFYRECDMQLFGPWGEIVSPSLSPATSNAGGCRLFINVAPHARIAIHALATNMGAGTEGANASYILIRDTHSLRTTAFHGQQVLYWESESSQAEMEFSEGFLKAQASLRGQYWTLQSWVPEMQDPQSWKGKEGT | 330 nM | –
2 | ADAMTS-13 construct consisting of a disintegrin, the first thrombospondin type 1 repeat, a cysteine-rich and a spacer domain (DTCS) (domain or fragment, disintegrin start by convention, end 685 from printed MDTCS limit; HEK-293 expressed (likely glycosylated) / CUB1+CUB2 taken from the conventional CUB1 start to the C-terminus; HEK-293 expressed …) RPQPGSAGHPPDAQPGLYYSANEQCRVAFGPKAVACTFAREHLDMCQALSCHTDPLDQSSCSRLLVPLLDGTECGVEKWCSKGRCRSLVELTPIAAVHGRWSSWGPRSPCSRSCGGGVVTRRRQCNNPRPAFGGRACVGADLQAEMCNTQACEKTQLEFMSQQCARTDGQPLRSSPGGASFYHWGAAVPHSQGDALCRHMCRAIGESFIMKRGDSFLDGTRCMPSGPREDGTLSLCVSGSCRTFGCDGRMDSQQVWDRCQVCGGDNSTCSPRKGSFTAGRAREYVTFLTVTPNLTSVYIANHRPLFTHLAVRIGGRYVVAGKMSISPNTTYPSLLEDGRVEYRVALTEDRLPRLEEIRIWGPLQEDADIQVYRRYGEEYGNLTRPDITFTYFQPKPRQA | – | 460 nM
